From patent US20250263470A1 (AstraZeneca / MedImmune, published 2025) come the findings set out here.

The chains are these.
B1: FBD-56 (antibody, V domains shown)
VH: EVQLVESGGHLVQPGRSLRLSCAASGFTFEDYAMNWVRQAPGKGLEWVSVISWDSGRIGYADSVKGRFTISRDNAKNSSYLQMNSLRPEDTALYYCVRDMLAYYSDNSGKKYNVYGMDVWGQGTTVTVSS
VL: EIVLTQSPATLSLSPGERATLSCRASQSVSTFLAWYQQKPGQAPRLLMYDASNRATGIPARFSGSGSGTDFTLTISSLEPEDFAIYYCQQRSHWPPIFGQGTRLEIK
B2: FBD-94 (antibody, V domains shown)
VH: EVQLVESGGGLVQPGRSLRLSCAVSGFIFEDYAINWVRQAPGKGLEWVSIISWDSGRIGYADSVRGRFTISRDNAKNSSFLQMNSLRPEDTAVYYCVKDMLAYYYDGSGIRYNLYGMDVWGQGTTVTVSS
VL: EIVLTQSPATLSLSPGERATLSCRASRSITTFLAWYQQKPGQAPRLLIYDASNRATGVPARFSGSGSGTDFTLTINSLEPDDFAIYYCQQRDHWPPIFGQGTRLEIK
B3: FBC-39 (antibody, V domains shown)
VH: EVQLVVSGGGLVKPGGSLRLSCAASGLSFLNAWMSWVRQAPGKGLEWVGRIKSNTDGGTTDYAAPVKGRFSISRDDSKNMLFLHMSSLRTEDTAVYYCATDGPYSDDFRSGYAARYRYFGMDVWGQGTTVTVSS
VL: DIQMTQSPSSVSASVGDRVTITCRASQDISTWLAWYQQKPGKAPKLLIYAASSLQSGVPSRFSGSGSGTDFTLTISSLQPEDFATYFCQQANSFPPTFGQGTKLEIK
B4: FBC-39 LTL (antibody, V domains shown)
VH: EVQLVESGGGLVKPGGSLRLSCAASGLTFLNAWMSWVRQAPGKGLEWVGRIKSNTDGGTTDYAAPVKGRFTISRDDSKNTLYLQMSSLKTEDTAVYYCTTDGPYSDDFRSGYAARYRYFGMDVWGQGTTVTVSS
VL: DIQMTQSPSSVSASVGDRVTITCRASQDISTWLAWYQQKPGKAPKLLIYAASSLQSGVPSRFSGSGSGTDFTLTISSLQPEDFATYYCQQANSFPPTFGQGTKLEIK
B5: FBC-39 FSL (antibody, V domains shown)
VH: EVQLVESGGGLVKPGGSLRLSCAASGFSFLNAWMSWVRQAPGKGLEWVGRIKSNTDGGTTDYAAPVKGRFTISRDDSKNTLYLQMSSLKTEDTAVYYCTTDGPYSDDFRSGYAARYRYFGMDVWGQGTTVTVSS
VL: DIQMTQSPSSVSASVGDRVTITCRASQDISTWLAWYQQKPGKAPKLLIYAASSLQSGVPSRFSGSGSGTDFTLTISSLQPEDFATYYCQQANSFPPTFGQGTKLEIK
B6: FBC-39 FTL (antibody, V domains shown)
VH: EVQLVESGGGLVKPGGSLRLSCAASGFTFLNAWMSWVRQAPGKGLEWVGRIKSNTDGGTTDYAAPVKGRFTISRDDSKNTLYLQMSSLKTEDTAVYYCTTDGPYSDDFRSGYAARYRYFGMDVWGQGTTVTVSS
VL: DIQMTQSPSSVSASVGDRVTITCRASQDISTWLAWYQQKPGKAPKLLIYAASSLQSGVPSRFSGSGSGTDFTLTISSLQPEDFATYYCQQANSFPPTFGQGTKLEIK
B7: FBC-39 LSL (antibody, V domains shown)
VH: EVQLVESGGGLVKPGGSLRLSCAASGLSFLNAWMSWVRQAPGKGLEWVGRIKSNTDGGTTDYAAPVKGRFTISRDDSKNTLYLQMSSLKTEDTAVYYCTTDGPYSDDFRSGYAARYRYFGMDVWGQGTTVTVSS
VL: DIQMTQSPSSVSASVGDRVTITCRASQDISTWLAWYQQKPGKAPKLLIYAASSLQSGVPSRFSGSGSGTDFTLTISSLQPEDFATYYCQQANSFPPTFGQGTKLEIK

For this assay, the target named is HA of influenza B virus B/Florida/4/2006 (yamagata) (influenza B virus B/Florida/4/2006). The experiment in a line: cell-based or functional assay.
For the molecule B1, the “Neutralization (Ave IC50 ug/ml)” value was determined as 0.013 µg/mL.

For the molecule B2, the “Neutralization (Ave IC50 ug/ml)” value turned out to be 0.016 µg/mL.

For B3, the “Neutralization (Ave IC50 ug/ml)” value amounted to 0.046 µg/mL.

Turning to B4, the “Neutralization (Ave IC50 ug/ml)” value was 0.023 µg/mL.

Take B5: the “Neutralization (Ave IC50 ug/ml)” value is 0.017 µg/mL.

For the molecule B6, the “Neutralization (Ave IC50 ug/ml)” value is 0.014 µg/mL.

As to B7, the “Neutralization (Ave IC50 ug/ml)” value stood at 0.016 µg/mL.
